According to publication PMC5998082, “Development of a Nanobody-based lateral flow assay to detect active Trypanosoma congolense infections” (Scientific Reports, 2018):

Biological target: the molecule itself
Assay: SEC; analytical SEC of TcoPYK alone, ENRICH 650 10/30 column, BioRAD gel filtration standard

B1: recombinant T. congolense pyruvate kinase (enzyme, UniProt G0UYF4 1-499, looked up)
chain: MSQLQHNIGLSIFEPVAKHRANRIICTIGPSTQSVEALKGLMKSGMSVARMNFSHGSYEYHQTTINNVRAAAAELGLHIGIALDTKGPEIRTGLFKDGEATYAPGDTVLVTTDPAFEKIGTKEKFYVDYPQLPNVVRPGGLIYVDDGVLTLRVLSKEDDCTLKCHVNNHHRLTDRKGINLPGCEVDLPAVSEKDRKDLQFGVEQGVDMIFASFIRTADQVREVRAALGEKGKDTLIISKIENHQGVQNIDAIIEASDGIMVARGDLGVEIPAEKVVVAQMCIISKCNVAGKPVICATQMLESMTTNPRPTRAEVTDVANAVFNGADCVMLSGETAKGKYPNEVVQYMVRICIEAQSATHDSVMFNSIKNLQKIPMSPEEAVCSSAVSSAFEVQAKAILVLSNTGRSARLISKYRPNCPIICATTRLLTCRQLNVTRSVESVYYDVDAHGEDNDREKRVQLGVDWAKTKGYVSAGDVMVIVHADHSVKGYPNQTRLVRVR
notes: also called TcoPYK; source: E. coli BL21(DE3), purified (details in the Supplementary Information)
- stoichiometry N: 4
